The supplement of paper PMC10567573

B1: TMEM175 (parent)
chain: SCTIIFLASIFQLAMWTTALLHQA
B2: ADD1 (parent)
chain: GEGTGSPPKWQIGEQEFEALMRML

Variants of: B1
Assay: protein stability index of a GFP-peptide fusion (GPS, HEK-293T) (PSI 1-6); higher = more stable
Conditions: c terminus: a fixed tail appended
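Note: lentivirally expressed fusions sorted by FACS into six bins by GFP to DsRed ratio, PSI derived from sequencing read proportions per bin multiplied by bin number.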

Protein stability index: each site, then its substitutions
I5: N 2.28 | K 2.92 | M 3.44 | H 3.05 | L 1.46 | A 2.65 | G 2.33 | F 2.81
C2: D 3.24 | V 3.64 | H 3.33 | G 3.98 | P 1.95 | N 4.36 | F 2.66 | Y 2.89 | K 3.34 | L 2.87 | R 2.3 | M 2.59 | E 2.64 | I 1.73 | Q 2.54 | W 2.26 | A 3.34
I4: P 4.19 | T 2.72 | K 3.01 | H 3.04 | F 2.9 | W 2.14 | A 3.22 | Y 2.23 | N 3 | G 2.7 | D 3.54 | V 2.35
S1: G 2.3 | N 2.02 | E 1.31 | Y 1.75 | W 2.14 | T 2.86 | L 2.96 | A 2.72 | Q 1.64 | I 3.24 | D 2.62 | K 2.29 | C 3.31 | R 4.91 | H 2.8 | M 2.14
T3: W 3.07 | Q 3 | K 2.84 | V 2.11 | A 3.36 | M 2.56 | F 2.75 | I 3.33 | H 2.04 | Y 4.1 | L 2.92 | E 1.72 | D 2.86 | S 2.57

Variants of: B2
Assay: as above
Conditions: c terminus: a fixed tail appended

Protein stability index, by site and new letter:
Q15: N 3.03 | S 3.13 | P 3.51 | A 2.75 | E 3.33 | D 3.48 | R 2.59 | H 2.83 | T 3.09 | V 2.39 | M 2.6 | W 1.86 | L 2.22
R22: S 3.44 | V 2.14 | H 2.92 | L 2.09 | Q 3.3 | A 3.18 | G 3.09 | I 2.49 | F 2.79 | M 2.55 | D 3.61 | Y 2.37
I12: A 3.9 | K 3.03 | N 3.55 | M 3.38 | T 3.7 | D 4.45 | F 3.09 | Y 3.69 | E 4.45
W10: N 4.19 | I 2.86 | L 3.06 | V 3.67 | F 3.26 | M 3.27 | D 4.58 | H 3.99 | Y 3.14 | G 3.97 | C 2.93 | Q 3.5 | R 4.22 | T 3.42
E14: P 2.93 | R 2.6 | T 2.79 | C 2 | N 2.96 | W 1.97 | F 2.1 | L 2.3 | M 2.72 | Y 1.8 | H 3.09
E2: I 4.01 | G 3.06 | K 2.3 | M 2.91 | V 3.94 | H 2.96 | Y 2.28 | F 2.73 | S 2.73 | T 3.33 | W 2.8 | D 2.79 | N 2.77
F17: Q 4.76 | A 3.92 | G 4.19 | E 4.52 | P 4.79 | R 3.83 | I 3.15 | N 3.55 | S 4.28 | D 4.82 | M 3.52 | Y 3.94 | T 3.75
P7: C 2.59 | V 2.62 | D 3.09 | S 2.45 | N 2.88 | F 3.61 | H 2.89 | A 2.92 | E 3.04 | K 3.23 | W 2.08 | I 2.46 | T 2.23 | L 2.33 | Q 3.04 | R 2.63
Q11: C 2.76 | L 2.98 | K 4.08 | F 3.22 | V 2.86 | W 3.04 | A 2.86 | N 3.53
A19: P 3.25 | T 3.25 | L 2.85 | W 2.31 | N 4.03 | I 2.39 | M 2.7 | Q 3.65 | V 2.97 | H 3.65 | S 2.94
K9: D 3.33 | Y 3.43 | E 3.82 | G 3.14 | S 3.48 | R 3.07 | V 2.49 | T 2.95
L20: Q 5.25 | V 3.48 | D 4.8 | A 4.61 | N 4.89 | R 4.19 | C 4.05 | K 4.4 | F 3.07 | T 3.63 | E 4.77 | H 4.97 | Y 3.97
S6: V 2.46 | T 2.68 | K 2.12 | G 2.55 | R 3.75 | H 2.76 | D 3.25 | E 3.45 | M 3.91
T4: S 3.08 | D 2.96 | P 3.06 | N 3.07 | Q 3.08 | F 2.35 | A 3.63 | R 3.44 | I 2.75 | H 3.19 | E 3.51
E18: V 2.3 | M 2.95 | I 2.37 | H 2.1 | Y 2.08 | P 3.39 | S 3.17 | L 2.41 | T 3 | G 2.69
G1: F 3.06 | H 3.1 | W 2.54 | A 3.28 | D 3.66 | P 3.26 | Q 3.24 | I 2.92 | N 3.51 | E 3.57 | R 3.26 | L 3.32
P8: R 3.14 | M 2.63 | H 2.56 | L 2.6 | Y 2.49 | Q 2.79 | I 2.31 | C 2.27 | D 3.84 | G 3 | K 2.52 | V 2.2
M21: C 3.18 | G 3.87 | D 4.41 | Y 3.09 | T 3.13 | K 3.49 | H 4.16 | S 3.66 | Q 3.83 | V 3.11 | W 2.83
L24: P 4.38 | F 3.42 | S 3.92 | R 4.34 | C 3.52 | A 3.83 | W 3.57 | V 3.06 | K 4.67 | M 3.89
G3: L 3.45 | M 3.01 | S 2.87 | K 2.64 | E 3.07 | N 3.51 | F 2.89 | R 3.14 | Q 3.8 | I 3 | C 3.6 | W 2.49 | P 3.14
G13: H 3.29 | T 2.74 | W 3.37 | Y 2.66 | K 3.21 | E 4.05 | Q 3.58 | D 3.65 | N 2.78
G5: F 2.46 | M 2.4 | L 2.9 | R 2.77 | W 2.21 | T 3 | C 2.86 | D 3.15 | N 3.28 | A 3.39 | P 2.83
E16: I 1.31 | Q 2.37 | A 2.33 | F 1.59 | H 2.8 | N 3.1 | M 1.74 | P 2.61 | L 1.4
M23: D 5.08 | Q 4.44 | L 2.74 | E 5.04 | I 2.16 | P 4.76 | H 3.1 | N 4.8 | V 3.43
